Test results published in the supplement of paper PMC9732359.
± gives the uncertainty stated by the source.

Test: protein stability index of a GFP-peptide fusion (yeast GPS) (PSI 1-4); higher = more stable; sorted into four equal gates, so the index is relative within each strain
Outline: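 Plasmids isolated from each sorting gate were PCR-amplified and Illumina-sequenced, and barcodes assigned the reads to strains. The gates, four of equal size, were set by GFP/Cherry fluorescence ratio on mid-log cultures in leucine-free medium. These cultures were yeast carrying a pooled library of tiled 17-residue yeast protein peptides fused downstream of GFP on a plasmid that also expresses Cherry. The protein stability index is the sum of every gate's read frequency times its gate number.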

Sequence | protein stability index (doa10∆) | protein stability index (pdr5∆) | protein stability index (san1∆) | protein stability index (ubr1∆)
MAAALPNPTPSMINSVS [PGD1] | 1.77 ± 0.05 | 2.3 ± 0.061 | 2.05 ± 0.052 | 2.1 ± 0.045
MAATATDKIGRSVPAPG [FAS2] | 2.82 ± 0.081 | 3 ± 0.076 | 3.04 ± 0.073 | 3.01 ± 0.053
MAGVKAYELRTKSKEQL [RPL35A] | 3 ± 0.11 | 3.38 ± 0.1 | 2.94 ± 0.067 | 3.17 ± 0.13
MAKVEVNLAAIPLGKNV [RIP1] | 3.33 ± 0.3 |  |  | 
MAPNTSRKQKIAKTFTV [RPL22A] | 2.15 ± 0.17 | 2.03 ± 0.089 | 2.61 ± 0.13 | 2.03 ± 0.092
MAQENSMERKVQGAAPW [MCD1] | 3.35 ± 0.26 | 2.92 ± 0.11 |  | 
MAQTATQQQPGAPGANA [SRP54] | 3.31 ± 0.065 | 3.22 ± 0.088 | 3.33 ± 0.054 | 3.21 ± 0.05
MARRPARCYRYQKNKPY [RPL10] | 2.17 ± 0.092 | 2.13 ± 0.11 | 2.32 ± 0.092 | 2.4 ± 0.1
MARTKQTARKSTGGKAP [HHT1] | 3.31 ± 0.12 | 3.25 ± 0.11 | 3.04 ± 0.1 | 3.39 ± 0.092
MASYMLNSFAFELCSLG [YJR042W/NUP85] | 1.29 ± 0.17 | 1.51 ± 0.16 |  | 1.5 ± 0.23
MATIASEYSSEASNTPI [PRE7] | 2.53 ± 0.094 | 2.76 ± 0.14 | 2.83 ± 0.08 | 2.93 ± 0.13
MATNRADTLDPALLRPG [RPT3] |  | 3.31 ± 0.18 |  | 2.79 ± 0.28
MCVSKGNASLKYIALQV [YCG1] | 2.54 ± 0.099 | 2.02 ± 0.077 | 1.48 ± 0.12 | 2.6 ± 0.084
MDETQTRAKIGGLNDPR [RPO21] | 2.8 ± 0.1 | 2.24 ± 0.11 | 2.3 ± 0.1 | 1.85 ± 0.22
MDKKILLNINGSRKVAG [SMX2] | 1.57 ± 0.06 | 1.84 ± 0.066 | 1.81 ± 0.09 | 2.11 ± 0.047
MDMNEIEDKENSESTTQ [RPT5] | 3.04 ± 0.15 | 3.25 ± 0.12 | 3.16 ± 0.12 | 3.21 ± 0.098
MDRDSESEEAETKDIRK [SRB4] | 3.21 ± 0.17 | 3.13 ± 0.14 | 2.62 ± 0.28 | 2.95 ± 0.16
MDSKGKITIGIQRTTES [RGR1] | 3.44 ± 0.075 | 3.39 ± 0.066 | 3.33 ± 0.083 | 3.11 ± 0.075
MEERDGAKFENIVHNFK [AAR2] | 3.09 ± 0.1 | 2.51 ± 0.097 | 2.41 ± 0.12 | 1.88 ± 0.056
MEKDKLKNLLRSNFRVN [SNU114] | 1.99 ± 0.087 | 2.45 ± 0.08 | 2.46 ± 0.13 | 2.65 ± 0.087
MENTLGEGSTVNASVDV [SWI3] |  |  |  | 3.54 ± 0.21
METRINILLRERDSYKL [YIL149C/MLP2] | 1.96 ± 0.27 | 1.59 ± 0.11 | 1.2 ± 0.27 | 2.3 ± 0.15
MFNDLNSMDISMFSGLD [MED2] | 3.18 ± 0.06 | 3.26 ± 0.054 | 3.15 ± 0.037 | 3.12 ± 0.052
MFSPLVDSGSNDAMAGG [RPO21] | 3.3 ± 0.16 |  | 3.37 ± 0.26 | 
MGMDLYKTSKAAQDVWN [FAS1] | 3.08 ± 0.13 | 3.37 ± 0.16 | 3.08 ± 0.13 | 3.43 ± 0.077
MIAKEVKTSPDAKKCIA [FAS1] | 1.71 ± 0.15 | 2.95 ± 0.28 | 2.8 ± 0.28 | 2.05 ± 0.12
MIATNVAARGLDIPNVS [PRP28] | 2.58 ± 0.17 |  | 2.2 ± 0.16 | 
MIDLGFEDQVTNILTKV [PRP28] |  | 3.67 ± 0.25 | 2.88 ± 0.22 | 3.16 ± 0.19

Sequence | protein stability index (doa10∆) | protein stability index (pdr5∆) | protein stability index (san1∆) | protein stability index (ubr1∆)
MIIFLKNYDATDKPFSS [CSI1] | 2.63 ± 0.059 | 2.85 ± 0.062 | 2.92 ± 0.05 | 2.92 ± 0.048
MIYDDAHEISQGVYGAV [BRR2] | 3 ± 0.068 | 2.88 ± 0.051 | 2.83 ± 0.049 | 2.67 ± 0.045
MKDRLVEWNDQVEKLGK [RPN9] | 3.4 ± 0.13 | 3.06 ± 0.1 | 3.36 ± 0.083 | 3.39 ± 0.085
MKIQAGQLGLDDNDVPG [YLR018C/POM34] | 3.22 ± 0.19 | 3 ± 0.14 | 2.5 ± 0.21 | 3.11 ± 0.29
MKNKAETTTEEDSENPS [ITC1] | 3.31 ± 0.19 | 3.27 ± 0.14 | 3.03 ± 0.13 | 3.31 ± 0.15
MKQPYVFVKKHHELIKV [SSN2] | 1.33 ± 0.072 | 1.27 ± 0.051 | 1.21 ± 0.08 | 1.2 ± 0.051
MLETAGFSMNNPYNIVP [SMC3] | 3.17 ± 0.11 | 3.18 ± 0.09 | 3.19 ± 0.07 | 3.09 ± 0.051
MLGIRSSVKTCFKPMSL [RIP1] | 2.9 ± 0.074 | 3.05 ± 0.079 | 2.83 ± 0.057 | 2.9 ± 0.052
MLGRAGRPRYDTFGEGI [BRR2] | 3.25 ± 0.12 | 2.81 ± 0.14 | 3.15 ± 0.087 | 3.31 ± 0.15
MLKYRRLFIGDQNNKKM [SNF2] | 2.62 ± 0.097 | 2.82 ± 0.073 | 2.47 ± 0.094 | 2.63 ± 0.057
MLMPKQERNKIHQYLFQ [RPS10B] | 2.76 ± 0.29 | 2.88 ± 0.17 | 2.89 ± 0.14 | 2.78 ± 0.1
MLNLIDDVKNILNAKYT [RPN6] | 2.85 ± 0.18 | 2.57 ± 0.09 | 2.86 ± 0.061 | 2.86 ± 0.068
MMQDPQMQQMAKQFGMG [SRP54] | 3.15 ± 0.039 | 2.93 ± 0.043 | 3.03 ± 0.031 | 2.75 ± 0.027
MMTRRVVMAMYNPKMID [RET1] | 3.46 ± 0.15 | 3.37 ± 0.19 | 2.62 ± 0.29 | 3.05 ± 0.094
MMVSYPKIDEDDTWYNL [AAR2] | 3.29 ± 0.063 | 3.34 ± 0.06 | 3.25 ± 0.048 | 3.35 ± 0.045
MNETLNLKVELKEQSEQ [SMC4] |  |  | 2.14 ± 0.29 | 3.42 ± 0.12
MNGNSTNNEQLQQELAT [NUT2] | 3.2 ± 0.06 | 3.15 ± 0.075 | 3.1 ± 0.053 | 3.07 ± 0.062
MNRRKIAMPKRRMAFKP [YLR335W/NUP2] | 2.71 ± 0.076 | 2.35 ± 0.14 | 2.91 ± 0.071 | 3.13 ± 0.13
MNTTLGSIGSRKYSFNY [YAR002W/NUP60] | 1.75 ± 0.06 | 2.29 ± 0.066 | 1.87 ± 0.095 | 1.41 ± 0.041
MNTVPFTSAPIEVTIGI [AAR2] | 1.49 ± 0.092 | 2.01 ± 0.12 | 1.47 ± 0.22 | 1.64 ± 0.083
MPFWKFFMKNFPFVLKV [SRB8] | 2.8 ± 0.23 | 1.99 ± 0.11 | 2.03 ± 0.12 | 2.04 ± 0.1
MPGVSVRDVAAQDFINA [RPS19A] | 1.81 ± 0.12 | 1.31 ± 0.12 |  | 1.16 ± 0.11
MPKKRASNGRNKKGRGH [RPS26A] | 3.3 ± 0.17 | 3.43 ± 0.19 | 2.82 ± 0.24 | 3.5 ± 0.083
MSANGFAADGDALVKRF [PRE7] | 3.35 ± 0.26 | 3.4 ± 0.23 | 2.9 ± 0.21 | 3.41 ± 0.053
MSAVPSVQTFGKKKSAT [RPS16A] | 1.45 ± 0.1 | 1.32 ± 0.15 | 1.26 ± 0.26 | 1.22 ± 0.13
MSDAVTIRTRKVISNPL [RPS24A] | 2.78 ± 0.23 | 2.69 ± 0.13 | 2.97 ± 0.13 | 2.23 ± 0.14
MSDLFTFDWFIKTRTVH [ISW2] | 2.88 ± 0.099 | 3.17 ± 0.099 | 2.76 ± 0.093 | 3.21 ± 0.072
